Measurements: publication PMC7934871 (JCI Insight, 2021)

Legend:
HCT116 cells = format: cell-based, human
Protocol: Bis-(1,3-Dibutylbarbituric Acid) Trimethine Oxonol [DiBAC4(3)]
Supplemental Figure 3 (related to Figure 1). The potential mechanism of PS-oligo
mediated cell penetration.
penetration was assessed by flow cytometry. SD is shown. Unpaired student t-test. ****
P< 0.001. Data shown is the representative of 3 independent experiments.
(B) HCT116 cells were pre-treated with a variety of endocytosis inhibitors prior to
treating with FAM-labeled PS-acet.-STAT3 peptide. The graph represents the statistical
analysis of the fluorescence intensity (M.F.I) of FAM-labeled peptide shown in A. SD is
shown. n= 5 independent experiments. Unpaired student t-test. **** P< 0.001.
(C) Polarization of cell membrane contributes to penetration of PS-acet.-STAT3
peptide. Cell membrane was depolarized by adding 120 mM KCl to HCT116 for 2.5 h,
followed by incubation with the peptide (upper panel). Data is representative of 4
independent experiments. Depolarization of the cell membrane was confirmed by
applying 2.5 mM DiBAC4(3) to other cells (lower panel). n= 3 independent experiments.
Penetration was assessed by flow cytometry. The right panels show the mean of
fluorescence intensity (M.F.I) quantified by FlowJo software. SD is shown. Unpaired
student t-test. *, P<0.05; *** P< 0.005.
Aftabizadeh and Li et al., Figure S3

STAT3 = STAT3 (Homo sapiens, UniProt P40763); assay: Immunoprecipitation and Western blotting, STAT3; format: binding; set-up: endogenous in cells; host or cells: U251; settings: immunoprecipitation, Western blotting, U251 cells
Chain of STAT3 (P40763 whole entry): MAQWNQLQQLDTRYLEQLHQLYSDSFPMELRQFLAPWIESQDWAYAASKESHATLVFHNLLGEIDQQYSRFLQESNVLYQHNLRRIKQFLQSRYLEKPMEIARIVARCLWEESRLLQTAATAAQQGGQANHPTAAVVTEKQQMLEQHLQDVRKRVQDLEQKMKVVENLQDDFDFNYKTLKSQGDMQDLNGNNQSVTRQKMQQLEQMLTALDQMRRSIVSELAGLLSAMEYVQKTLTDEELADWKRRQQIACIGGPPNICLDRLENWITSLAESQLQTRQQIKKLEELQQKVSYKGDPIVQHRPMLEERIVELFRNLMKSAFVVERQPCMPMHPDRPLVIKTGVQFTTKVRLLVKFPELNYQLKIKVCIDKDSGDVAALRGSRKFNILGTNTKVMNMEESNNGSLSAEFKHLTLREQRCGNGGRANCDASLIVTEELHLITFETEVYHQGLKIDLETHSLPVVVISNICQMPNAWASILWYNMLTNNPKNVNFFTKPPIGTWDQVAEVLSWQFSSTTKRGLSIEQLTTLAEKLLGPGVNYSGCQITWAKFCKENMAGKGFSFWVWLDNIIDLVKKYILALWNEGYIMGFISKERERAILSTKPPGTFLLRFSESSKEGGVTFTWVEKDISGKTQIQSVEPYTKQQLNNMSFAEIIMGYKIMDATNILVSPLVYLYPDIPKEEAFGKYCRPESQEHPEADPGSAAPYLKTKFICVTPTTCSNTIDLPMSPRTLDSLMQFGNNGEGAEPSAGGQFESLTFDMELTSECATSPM
From the text: Figure 2 PS-acet.-STAT3-peptide specifically binds STAT3 in the nucleus. (A) Penetration of PS-acet.-STAT3 peptide and its colocalization with STAT3 protein in U251 cells are confirmed by confocal microscopy. Scale bars: 50 μm. Insets: original magnification, ×40. (B) PS-acet.-STAT3 peptide specifically binds to STAT3 protein, not STAT1 and STAT5 proteins, shown in U251 cells by immunoprecipitation followed by Western blotting (left panel). Expression of total STAT1, STAT3, and STAT5 was confirmed by Western blotting in U251 cells (input protein level, right panel).
Whole cell lysates or tissue homogenates were prepared by using RIPA lysis buffer (50 mM Tris at pH 7.4, 150 mM NaCl, 1 mM EDTA, 0.5% NP-40, 1 mM NaF, 15% glycerol, and 20 mM β-glycerophosphate). […] Protein amounts were determined by BCA using a Thermo Fisher Scientific kit. […] The protein levels for STAT1 (sc-346, E-23), STAT3 (sc-482, C-20), STAT5 (sc-74442, A-9), Crm1 (exportin 1) (sc-5595, H-300), CAS (exportin 2) (sc-271537, H-2), exportin 5 (sc-66885, H-300), and exportin 7 (sc-98639, H-82) were determined using antibodies from Santa Cruz Biotechnology Inc. Anti–exportin 3 (exportin T, 630622, LOS1 05-1525), anti–exportin 4 (3499-1), and anti–exportin 6 (11408-1-AP) were from MilliporeSigma, Epitomics, and Proteintech, respectively. […]

PDIPKEEAFGK685(Ac)YCRPESQEHPC-linker-T*C*C*A*T*G*A*G*C*T*T*C*C*T*G*A*T*G*C*T [PS-acet.-STAT3 peptide]
peptide penetration in presence of dextran sulfate (HCT116 cells): partially | binding to STAT3 protein (STAT3): specifically bound
